Positions count from the first letter of the chain named.
T1: FcγRIIb extracellular domain with C-terminal His tag (human, UniProt P31994 43-217)
T1 construct: extracellular domain; also called FcgRIIb; not shown: His tag at the C terminus
T1 sequence (looked up): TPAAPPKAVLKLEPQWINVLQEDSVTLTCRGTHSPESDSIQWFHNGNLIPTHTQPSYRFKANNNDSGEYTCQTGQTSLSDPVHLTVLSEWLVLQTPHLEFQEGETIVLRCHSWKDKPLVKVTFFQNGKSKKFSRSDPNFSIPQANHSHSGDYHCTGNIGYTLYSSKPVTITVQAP

T2: FcγRIIa R type extracellular domain with C-terminal His tag (human, UniProt P12318 34-217)
T2 construct: extracellular domain; also called FcgRIIaR; not shown: His tag at the C terminus
T2 sequence (looked up): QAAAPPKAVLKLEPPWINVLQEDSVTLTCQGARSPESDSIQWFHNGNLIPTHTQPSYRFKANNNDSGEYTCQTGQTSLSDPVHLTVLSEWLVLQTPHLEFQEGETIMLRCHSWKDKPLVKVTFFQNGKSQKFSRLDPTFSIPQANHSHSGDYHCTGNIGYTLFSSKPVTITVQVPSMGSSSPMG

T3: FcγRIIa H type extracellular domain with C-terminal His tag (human, UniProt P12318 34-217)
T3 construct: extracellular domain; also called FcgRIIaH; not shown: His tag at the C terminus
T3 sequence (looked up): T2 sequence (looked up) with R134H

T4: FcγRIIa R type extracellular domain with C-terminal His tag (human, UniProt P12318 34-217)
T4 construct: extracellular domain; also called FcgRIIaR
T4 sequence (looked up): T2 sequence (looked up)

B1: IL6R-BP565/IL6R-L (antibody, human IgG1, kappa, name in EU numbering)
heavy: QVQLQESGPGLVKPSETLSLTCAVSGHSISHDHAWSWVRQPPGEGLEWIGFISYSGITNYNPSLQGRVTISRDNSKNTLYLQMNSLRAEDTAVYYCARSLARTTAMDYWGEGTLVTVSSASTKGPSVFPLAPSSKSTSGGTAALGCLVKDYFPEPVTVSWNSGALTSGVHTFPAVLQSSGLYSLSSVVTVPSSSLGTQTYICNVNHKPSNTKVDKKVEPKSCDKTHTCPPCPAPDLLGDDSVFLFPPKPKDTLMISRTPEVTCVVVDVAEEDGEVKFNWYVDGVEVHNAKTKPREEQDNSTYRVVSVLTVLHQDWLNGKEYKCKVSNKALPRPIEKTISKAKGQPREPQVYTLPPSRDELTKNQVSLTCLVKGFYPSDIAVEWESNGQPENNYKTTPPVLDSDGSFFLYSKLTVDKSRWQQGNVFSCSVMHEALHNHYTQESLSLSP
light: not shown
notes: human IgG1
B2: IL6R-BP563/IL6R-L (antibody, human IgG1, kappa, name in EU numbering)
heavy: B1 heavy with A269S, E274D
light: not shown
notes: human IgG1
B3: IL6R-BP556/IL6R-L (antibody, human IgG1, kappa, name in EU numbering)
heavy: B1 heavy with D235E, V266I, A269G
light: not shown
notes: human IgG1
B4: IL6R-BP551/IL6R-L (antibody, human IgG1, kappa, name in EU numbering)
heavy: B1 heavy with D235E, V266I, A269S, E274D
light: not shown
notes: human IgG1
B5: IL6R-2B253/IL6R-L (antibody, human IgG1, kappa, name in EU numbering)
heavy: B1 heavy with D239G, A269S, E270H, G273P, D298Y, V325M, R332A
light: not shown
notes: IgG1; alterations on IL6R-B3, EU numbering
B6: IL6R-BP197/IL6R-L (antibody, human IgG1, kappa, name in EU numbering)
heavy: B1 heavy with L236Y, A269S, E270D, K328D, R332K
light: not shown
notes: as for B5
B7: IL6R-BP184/IL6R-L (antibody, human IgG1, kappa, name in EU numbering)
heavy: B1 heavy with D239G, A269S, E270H, D298Y, R332K
light: not shown
notes: as for B5
B8: IL6R-BP204/IL6R-L (antibody, human IgG1, kappa, name in EU numbering)
heavy: B1 heavy with D239G, A269S, E270H, D298Y, K328A
light: not shown
notes: as for B5
B9: IL6R-BP196/IL6R-L (antibody, human IgG1, kappa, name in EU numbering)
heavy: B1 heavy with D235E, L236Y, D239G, A269S, E270D, D298Y, K328A, R332K
light: not shown
notes: as for B5
B10: IL6R-BP211/IL6R-L (antibody, human IgG1, kappa, name in EU numbering)
heavy: B1 heavy with D239G, A269S, E270D, D298Y, K328A
light: not shown
notes: as for B5
B11: IL6R-BP132/IL6R-L (antibody, human IgG1, kappa, name in EU numbering)
heavy: B1 heavy with D239G, A269S, E270H, G273P, D298Y, K328A, R332K
light: not shown
notes: as for B5
B12: IL6R-BP223/IL6R-L (antibody, human IgG1, kappa, name in EU numbering)
heavy: B1 heavy with D235E, L236Y, A269S, E270D, D298Y, K328A
light: not shown
notes: as for B5
B13: IL6R-BP210/IL6R-L (antibody, human IgG1, kappa, name in EU numbering)
heavy: B1 heavy with D235E, A269S, E270D, D298Y
light: not shown
notes: as for B5
B14: IL6R-BP208/IL6R-L (antibody, human IgG1, kappa, name in EU numbering)
heavy: B1 heavy with A269S, E270D, D298Y
light: not shown
notes: as for B5
B15: IL6R-BP188/IL6R-L (antibody, human IgG1, kappa, name in EU numbering)
heavy: B1 heavy with A269S, E270D, D298Y, R332K
light: not shown
notes: as for B5
B16: IL6R-BP085/IL6R-L (antibody, human IgG1, kappa, name in EU numbering)
heavy: B1 heavy with D235E, A269S, E270H, G273P, D298Y, R332K
light: not shown
notes: as for B5
B17: IL6R-BP183/IL6R-L (antibody, human IgG1, kappa, name in EU numbering)
heavy: B1 heavy with L236Y, D239G, A269S, E270H, D298Y, K328A, R332K
light: not shown
notes: as for B5
B18: IL6R-BP186/IL6R-L (antibody, human IgG1, kappa, name in EU numbering)
heavy: B1 heavy with L236Y, A269S, E270H, K328A, R332K
light: not shown
notes: as for B5

What follows are binders tested against T1, FcγRIIb extracellular domain with … (assay: SPR; KD of IL6R-B3/IL6R-L divided by KD of variant).

Binder	Relative FcgRIIb-binding Activity
B1	563
B2	196
B3	369
B4	481

Each binder was assayed against T2, FcγRIIa R type extracellular domain … (assay: SPR; KD of IL6R-B3/IL6R-L divided by KD of variant).

Binder	Relative FcgRIIaR-binding Activity
B1	4.7
B2	2.4
B3	3.6
B4	4.4

Each binder was assayed against T1, FcγRIIb extracellular domain with … (assay: SPR, antibody captured, FcgR analyte).

Binder	Kd
B1	5.5 nM
B2	16 nM
B3	8.4 nM
B4	6.4 nM

What follows are binders tested against T2, FcγRIIa R type extracellular domain … (assay: SPR, antibody captured, FcgR analyte).

Binder	Kd
B1	230 nM
B2	460 nM
B3	300 nM
B4	250 nM

What follows are binders tested against T5, FcγRIa extracellular domain with C-terminal His tag (human, UniProt P12314 16-292) (assay: SPR, antibody captured, FcgR analyte).
T5 construct: also called FcgRIa; CD64; not shown: His tag at the C terminus
T5 sequence (P12314 16-292): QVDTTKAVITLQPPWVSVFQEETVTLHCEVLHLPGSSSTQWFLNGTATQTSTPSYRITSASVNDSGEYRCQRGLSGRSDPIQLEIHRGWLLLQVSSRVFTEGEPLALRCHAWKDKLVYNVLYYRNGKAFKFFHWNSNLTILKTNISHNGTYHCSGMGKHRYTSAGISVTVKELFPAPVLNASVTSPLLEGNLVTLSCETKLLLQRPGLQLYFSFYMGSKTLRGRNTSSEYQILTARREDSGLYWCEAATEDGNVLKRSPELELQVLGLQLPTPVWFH

Binder	Kd
B1	2.4 nM
B2	12 nM
B3	43 nM
B4	32 nM

The binders below were run against T3, FcγRIIa H type extracellular domain … (assay: SPR, antibody captured, FcgR analyte).

Binder	Kd
B1	4700 nM
B2	8300 nM
B3	5800 nM
B4	2800 nM

These binders were tested against T4, FcγRIIa R type extracellular domain … (assay: SPR (Biacore), FcgR as analyte).

Binder	Kd
B5	5000 nM
B6	980 nM
B7	2300 nM
B8	4500 nM
B9	3000 nM
B10	4100 nM
B11	8000 nM
B12	600 nM
B13	1000 nM
B14	850 nM
B15	1000 nM
B16	4200 nM
B17	2600 nM
B18	960 nM

From patent publication US20220411483A1 (Chugai, published 2022)
